According to patent US20190315855 (published 2019):
Substitutions are numbered along the chain they refer to. Values belong to the binder of their own block, whether it stands above or below them.

How the values were obtained:
[1] = biological target: T1, mouse DLL4 (cell surface) (mouse, UniProt Q9JI71); test: FACS
T1 chain: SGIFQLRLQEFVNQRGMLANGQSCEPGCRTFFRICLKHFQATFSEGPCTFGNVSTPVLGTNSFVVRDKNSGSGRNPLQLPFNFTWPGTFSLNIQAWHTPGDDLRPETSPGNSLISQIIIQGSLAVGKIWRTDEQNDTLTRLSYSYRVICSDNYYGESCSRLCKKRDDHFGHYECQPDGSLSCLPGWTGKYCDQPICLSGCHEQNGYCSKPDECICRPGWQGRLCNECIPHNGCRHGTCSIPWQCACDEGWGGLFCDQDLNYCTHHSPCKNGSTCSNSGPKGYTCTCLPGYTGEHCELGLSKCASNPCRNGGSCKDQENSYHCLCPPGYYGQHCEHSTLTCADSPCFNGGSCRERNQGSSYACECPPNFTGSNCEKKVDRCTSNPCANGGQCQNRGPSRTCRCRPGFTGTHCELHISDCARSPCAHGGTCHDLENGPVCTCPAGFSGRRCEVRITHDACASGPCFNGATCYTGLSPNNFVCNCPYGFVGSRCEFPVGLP

[2] = biological target: T2, mouse DLL4 ECD (mouse, UniProt Q9JI71); test: SPR
T2 chain: T1 chain

[3] = biological target: human DLL4 (cell surface) (human); test: FACS
[4] = biological target: human DLL4 ECD (human); test: competition ELISA
human DLL4 ECD (human), sequence (chain, as listed by the source): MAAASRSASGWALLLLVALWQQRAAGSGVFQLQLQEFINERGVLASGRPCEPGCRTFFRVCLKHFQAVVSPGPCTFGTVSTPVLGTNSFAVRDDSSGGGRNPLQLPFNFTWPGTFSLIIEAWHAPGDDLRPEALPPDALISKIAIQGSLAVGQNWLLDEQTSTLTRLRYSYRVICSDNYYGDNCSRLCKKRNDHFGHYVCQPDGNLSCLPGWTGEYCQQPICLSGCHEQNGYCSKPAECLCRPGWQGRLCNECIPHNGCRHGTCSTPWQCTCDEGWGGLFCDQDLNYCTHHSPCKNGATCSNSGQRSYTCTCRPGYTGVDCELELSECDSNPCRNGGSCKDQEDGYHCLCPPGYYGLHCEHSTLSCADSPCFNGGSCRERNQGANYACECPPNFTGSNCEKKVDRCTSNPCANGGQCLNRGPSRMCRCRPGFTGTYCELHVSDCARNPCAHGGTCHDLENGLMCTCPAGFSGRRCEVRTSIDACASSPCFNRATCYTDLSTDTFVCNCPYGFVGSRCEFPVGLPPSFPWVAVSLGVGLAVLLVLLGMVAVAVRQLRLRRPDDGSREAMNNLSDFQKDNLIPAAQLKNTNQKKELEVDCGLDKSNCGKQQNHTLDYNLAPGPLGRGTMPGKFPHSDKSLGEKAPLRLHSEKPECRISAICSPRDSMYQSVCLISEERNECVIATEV

human DLL4 (cell surface) (human), sequence (chain, as listed by the source): as above

B1: 14G1 rat mAb (antibody, V domains shown)
VH: EVQLQQSGAELAKPGSSVKISCKASGYTFTNYDISWIKQTNGQGLEYLGYINTGSGGIYSNEKFKGKATLTVDKSSNTAFMQLSSLTPEDTAVYYCVREGNNFDHWGQGVKVTVSS
VL: DTVMTQSPASMSTSVGERVTVNCKASQSVGTIVAWFQQKPGQSPKRLIYLATYRHTGVPDRFIGSGFGRDFTLTISNVEAEDLAVYYCLQYGSRPFTFGAGTKLEIKR
EC50 [1]: > 50.9 nM

B2: h1A11.A12 (antibody, V domains shown)
VH: EVQLVESGGGLVQPGGSLRLSCAASGFTFSNFPMAWVRQAPGKGLEWVATISSSDGTTYYRDSVKGRFTISRDNAKNSLYLQMNSLRAEDTAVYYCARGYYNSPFAYWGQGTLVTVSS
VL: DIQMTQSPSSLSASVGDRVTITCRASQDIYYNLAWYQQKPGKSPKLLIFDTSSLADGVPSRFSGSGSGTDFTLTISSLQPEDFATYFCQQYDWYPPTFGQGTKLEIK
Kd [2]: 16 nM

B3: h1A11.A7 (antibody, V domains shown)
VH: B2 VH
VL: B2 VL with Y31I, S43A, S53D, F87Y, W93Y
Kd [2]: 13 nM

B4: 14A11 rat mAb (antibody, V domains shown)
VH: EVQLQQSGPELAKPGSSVKISCKASGYTFTNSYISWIKQTTGQGLEYVGYINTGSGGADYNEKFKGKATLTVDKSSRTAFMQLSSLTPGDSAVYYCAKSILLGSTCYFDYWGQGVLVTVSS
VL: NTVLTQSPALAVSLGQRVTISCKASRSVSSPMYSYIYWYQQKPGQQPKLLIYRASTLASGVPARFSGSGSGTDFTLNIDPVEADDIATYFCQQSWSDPFTFGSGTKLEIKR
EC50 [3]: > 50.9 nM

B8: h38H12.5 (antibody, V domains shown)
VH: EVQLVESGGGVVQPGRSLRLSCAASGFTFSNYGMYWIRQAPGKGLEWVAFISHGGGITYYRDSVKGRFTISRDNSKSTLYLQMNSLRAEDTAVYHCAALNWELGIDYWGQGTMVTVSS
VL: DIQMTQSPSSLSASVGDRVTITCRASEDIYSNLAWYQQKPGKAPKLLIYAANRLQDGVPSRFSGSGSGTDFTLTISSLQPEDFATYYCLQGSKFPLTFGQGTKLEIKR
IC50 [4]: 14.8 nM

B13: h38H12.7 (antibody, V domains shown)
VH: B8 VH
VL: B8 VL with F71Y
IC50 [4]: 12.5 nM

B15: h38H12.6 (antibody, V domains shown)
VH: B8 VH
VL: B8 VL with Q38K, A43S, F71Y, Y87F
IC50 [4]: 27 nM

Continued by falling IC50 [4], values first:

IC50 [4]: 8.31 nM
B6: h38H12.8 (antibody, V domains shown)
VH: B8 VH
VL: EIVMTQSPATLSVSPGERATLSCRASEDIYSNLAWYQKKPGQSPRLLIYAANRLQDGVPARFSGSGSGTEYTLTISSLQSEDFAVYFCLQGSKFPLTFGQGTKLEIKR

IC50 [4]: 5.84 nM
B7: h38H12.14 (antibody, V domains shown)
VH: B8 VH with V11L, R16G
VL: B8 VL with Q38K, A43S, F71Y, Y87F

IC50 [4]: 5.71 nM
B14: h38H12.15 (antibody, V domains shown)
VH: B8 VH with V11L, R16G
VL: B8 VL with F71Y

IC50 [4]: 5.29 nM
B11: h38H12.13 (antibody, V domains shown)
VH: B8 VH with V11L, R16G
VL: B8 VL

IC50 [4]: 4.16 nM
B5: h38H12.9 (antibody, V domains shown)
VH: B8 VH with I37V, S77N, H95Y
VL: B8 VL

IC50 [4]: 3.9 nM
B12: h38H12.10 (antibody, V domains shown)
VH: B8 VH with I37V, S77N, H95Y
VL: B8 VL with Q38K, A43S, F71Y, Y87F

IC50 [4]: 3.8 nM
B16: h38H12.11 (antibody, V domains shown)
VH: B8 VH with I37V, S77N, H95Y
VL: B8 VL with F71Y

IC50 [4]: 3.77 nM
B10: h38H12.16 (antibody, V domains shown)
VH: B8 VH with V11L, R16G
VL: B6 VL

IC50 [4]: 3.23 nM
B9: h38H12.12 (antibody, V domains shown)
VH: B8 VH with I37V, S77N, H95Y
VL: B6 VL
